Positions count from the first letter of the chain named. Values joined by “and” are separate entries in the source; they are usually repeats but may differ in a detail not shown here. Equal values may be shown once.
B1: 72T 73V 74S (protein, listed as Rattus norvegicus)
chain: AFDGTWKVDRNENYEKFMEKMGINVVKRKLGAHDNLKLTITQEGNKFTVKESSNFRNIDVVFELGVDFAYSTVSGTELTGTWTMEGNKLVGKFKRVDNGKELIAVREISGNELIQTYTYEGVEAKRIFKKE
modifications: PEPTIDE (1)...(131) wild-type rat intestinal fatty acid binding protein
B2: 72S 73M 74A (protein, listed as Rattus norvegicus)
chain: B1 chain with T72S, V73M, S74A
modifications: PEPTIDE (1)...(131) wild-type rat intestinal fatty acid binding protein
B3: 72T 73V 74N (protein, listed as Rattus norvegicus)
chain: B1 chain with S74N
modifications: PEPTIDE (1)...(131) wild-type rat intestinal fatty acid binding protein
B4: 72A 73P 74V (protein, listed as Rattus norvegicus)
chain: B1 chain with T72A, V73P, S74V
modifications: PEPTIDE (1)...(131) wild-type rat intestinal fatty acid binding protein
B5: 18V 31A 73W 72A (protein, listed as Rattus norvegicus)
chain: B1 chain with M18V, G31A, T72A, V73W, S74D
modifications: PEPTIDE (1)...(131) wild-type rat intestinal fatty acid binding protein
B6: 72A 73W 74V (protein, listed as Rattus norvegicus)
chain: B1 chain with T72A, V73W, S74V
modifications: PEPTIDE (1)...(131) wild-type rat intestinal fatty acid binding protein
B7: 72T 73V 74A (protein, listed as Rattus norvegicus)
chain: B1 chain with S74A
modifications: PEPTIDE (1)...(131) wild-type rat intestinal fatty acid binding protein
B8: 72G 73F 74E (protein, listed as Rattus norvegicus)
chain: B1 chain with T72G, V73F, S74E
modifications: PEPTIDE (1)...(131) wild-type rat intestinal fatty acid binding protein
B9: 18I 31I 55M 73V 72A (protein, listed as Rattus norvegicus)
chain: B1 chain with M18I, G31I, F55M, T72A, S74D
modifications: PEPTIDE (1)...(131) wild-type rat intestinal fatty acid binding protein
B10: 72V 73W 74N (protein, listed as Rattus norvegicus)
chain: B1 chain with T72V, V73W, S74N
modifications: PEPTIDE (1)...(131) wild-type rat intestinal fatty acid binding protein
B11: 18I 31A 73F 72A (protein, listed as Rattus norvegicus)
chain: B1 chain with M18I, G31A, T72A, V73F, S74D
modifications: PEPTIDE (1)...(131) wild-type rat intestinal fatty acid binding protein
B12: 18I 31Y 73V 72A (protein, listed as Rattus norvegicus)
chain: B1 chain with M18I, G31Y, T72A, S74D
modifications: PEPTIDE (1)...(131) wild-type rat intestinal fatty acid binding protein
B13: 72A 73W 74A (protein, listed as Rattus norvegicus)
chain: B1 chain with T72A, V73W, S74A
modifications: PEPTIDE (1)...(131) wild-type rat intestinal fatty acid binding protein
B14: 72V 73W 74S (protein, listed as Rattus norvegicus)
chain: B1 chain with T72V, V73W
modifications: PEPTIDE (1)...(131) wild-type rat intestinal fatty acid binding protein
B15: 18V 31A 73F 72A (protein, listed as Rattus norvegicus)
chain: B1 chain with M18V, G31A, T72A, V73F, S74D
modifications: PEPTIDE (1)...(131) wild-type rat intestinal fatty acid binding protein
B16: 14Q 18L 31A 73W 117V 72A (protein, listed as Rattus norvegicus)
chain: B1 chain with Y14Q, M18L, G31A, T72A, V73W, S74D, Y117V
modifications: PEPTIDE (1)...(131) wild-type rat intestinal fatty acid binding protein
B17: 18I 31V 73G 72A (protein, listed as Rattus norvegicus)
chain: B1 chain with M18I, G31V, T72A, V73G, S74D
modifications: PEPTIDE (1)...(131) wild-type rat intestinal fatty acid binding protein
B18: 18V 31A 55W 73W 72A (protein, listed as Rattus norvegicus)
chain: B1 chain with M18V, G31A, F55W, T72A, V73W, S74D
modifications: PEPTIDE (1)...(131) wild-type rat intestinal fatty acid binding protein
B19: 18I 31I 55M 73I 72A (protein, listed as Rattus norvegicus)
chain: B1 chain with M18I, G31I, F55M, T72A, V73I, S74D
modifications: PEPTIDE (1)...(131) wild-type rat intestinal fatty acid binding protein

Experiment: Probe fluorescence ratio response to palmitic acid relative to ADIFAB2
Type: binding
Conditions: response relative to ADIFAB2
How it was run: (§1)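 Fluorescently labeled rat intestinal FABP variants were read at two emission wavelengths, near the unbound maximum (about 420 to 480 nm) and the FFA-bound maximum (about 495 to 580 nm). R = Fλ1/Fλ2 after subtracting probe-free intensity; ΔR = R+agent − R0, normalized to ADIFAB2 (rI-FABP-L72A).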

| Molecule | DR/DR PA |
| --- | --- |
| B1 | 2.629 |
| B2 | 2.524 |
| B3 | 2.250 |
| B4 | 2.406 |
| B5 | 2.218 |
| B6 | 2.525 |
| B7 | 2.362 |
| B8 | 0.981 |
| B9 | 1.883 |
| B10 | 2.229 |
| B11 | 1.515 and 1.372 |
| B12 | 1.615 |
| B13 | 1.942 |
| B14 | 1.789 |
| B15 | 1.510 |
| B16 | 1.084 |
| B17 | 1.630 |
| B18 | 1.505 |
| B19 | 1.546 |

Experiment: Probe fluorescence ratio response to linoleic acid relative to ADIFAB2
Type: binding
Conditions: response relative to ADIFAB2
How it was run: as §1

| Molecule | DR/DR LA |
| --- | --- |
| B1 | 2.611 |
| B2 | 2.470 |
| B3 | 2.407 |
| B4 | 2.735 |
| B5 | 2.540 |
| B6 | 2.338 |
| B7 | 2.435 |
| B8 | 1.467 |
| B9 | 1.981 |
| B10 | 1.726 |
| B11 | 1.732 and 1.652 |
| B12 | 2.242 |
| B13 | 1.466 |
| B14 | 1.819 |
| B15 | 1.527 |
| B16 | 1.942 |
| B17 | 1.715 |
| B18 | 1.555 |
| B19 | 1.516 |

Experiment: Probe fluorescence ratio response to linolenic acid relative to ADIFAB2
Type: binding
Conditions: response relative to ADIFAB2
How it was run: as §1

| Molecule | DR/DR LNA |
| --- | --- |
| B1 | 2.579 |
| B2 | 2.567 |
| B3 | 2.362 |
| B4 | 2.845 |
| B5 | 2.770 |
| B6 | 2.752 |
| B7 | 2.597 |
| B8 | 2.415 |
| B9 | 2.408 |
| B10 | 2.384 |
| B11 | 2.318 and 2.203 |
| B12 | 2.176 |
| B13 | 2.093 |
| B14 | 2.044 |
| B15 | 2.036 |
| B16 | 1.958 |
| B17 | 1.946 |
| B18 | 1.887 |
| B19 | 1.803 |

Experiment: Probe fluorescence ratio response to stearic acid relative to ADIFAB2
Type: binding
Conditions: response relative to ADIFAB2
How it was run: as §1

| Molecule | DR/DR SA |
| --- | --- |
| B1 | 2.195 |
| B2 | 1.776 |
| B3 | 1.942 |
| B4 | 1.178 |
| B5 | 0.722 |
| B6 | 0.602 |
| B7 | 1.146 |
| B8 | 0.239 |
| B9 | 0.502 |
| B10 | 0.468 |
| B11 | 0.404 and 0.406 |
| B12 | 1.047 |
| B13 | 0.330 |
| B14 | 0.574 |
| B15 | 0.375 |
| B16 | 0.384 |
| B17 | 0.543 |
| B18 | 0.392 |
| B19 | 0.382 |

Experiment: Probe fluorescence ratio response to oleic acid relative to ADIFAB2
Type: binding
Conditions: response relative to ADIFAB2
How it was run: as §1

| Molecule | DR/DR OA |
| --- | --- |
| B1 | 2.670 |
| B2 | 2.443 |
| B3 | 2.491 |
| B4 | 2.187 |
| B5 | 1.738 |
| B6 | 1.574 |
| B7 | 1.950 |
| B8 | 0.585 |
| B9 | 1.188 |
| B10 | 1.146 |
| B11 | 0.950 and 0.995 |
| B12 | 1.818 |
| B13 | 0.933 |
| B14 | 1.477 |
| B15 | 0.828 |
| B16 | 1.478 |
| B17 | 0.968 |
| B18 | 0.913 |
| B19 | 0.822 |

Experiment: Probe fluorescence ratio response to arachidonic acid relative to ADIFAB2
Type: binding
Conditions: arachidonic acid; response relative to ADIFAB2
How it was run: as §1

| Molecule | DR/DR AA |
| --- | --- |
| B1 | 2.540 |
| B2 | 2.759 |
| B3 | 2.484 |
| B4 | 2.354 |
| B5 | 1.761 |
| B6 | 1.768 |
| B7 | 2.180 |
| B8 | 0.910 |
| B9 | 1.710 |
| B10 | 1.191 |
| B11 | 1.314 and 1.296 |
| B12 | 1.801 |
| B13 | 0.892 |
| B14 | 1.424 |
| B15 | 1.142 |
| B16 | 1.558 |
| B17 | 1.348 |
| B18 | 1.130 |
| B19 | 1.354 |

Experiment: Probe fluorescence ratio response to palmitoleic acid relative to ADIFAB2
Type: binding
Conditions: response relative to ADIFAB2
How it was run: as §1

| Molecule | DR/DR POA |
| --- | --- |
| B1 | 2.909 |
| B2 | 2.854 |
| B3 | 2.816 |
| B4 | 3.613 |
| B5 | 3.184 |
| B6 | 3.856 |
| B7 | 3.011 |
| B8 | 2.519 |
| B9 | 2.478 |
| B10 | 3.507 |
| B11 | 2.730 and 2.522 |
| B12 | 2.088 |
| B13 | 3.016 |
| B14 | 2.662 |
| B15 | 2.677 |
| B16 | 2.008 |
| B17 | 2.122 |
| B18 | 2.042 |
| B19 | 1.903 |

— patent US20060257938A1, “Method of screening for drugs that block ligand binding to a lipid binding protein” (priority 2005, published 2006)
